This data set is described as follows: soluble fraction after stress (log2 fold change); higher = more stays soluble; pooled small domains, quantitative proteomics. The following applies: stress: 50 degC. Put shortly: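 After stress at 50°C, the amount of each protein still soluble was measured. This was done on pooled custom libraries of small protein domains, using high-throughput quantitative proteomics. The figure given is a base-two log fold change and stands for aggregation propensity, with higher values meaning more protein stays in solution.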
Regarding “HMEVDDEAIYQGHEPSIRLHRLLKDVGYNSALLPSVVTQIFKDFPGIELAKALPIAMQLLNED”, the “soluble fraction (log2)” value is -0.403. The result for “HMAVIILDEPTLGLDPAVRISLWQAIQSARDSTMSAFLITTHYIKEVADYLSAVKILDHGREVASGNPSAL” reads -0.302. Consider “HMANSREIPKLAGIEQEEAVKQLLDLDLKPVIEEITDDDTDAGDVVRTDPAAGEHVAVDTEITVFISIG”, for which the “soluble fraction (log2)” value was -0.421. In the case of “HMQMSERENTILLTKRYIERGEYERAMNLLDSLLIKNALDEEALAMIDEIIALKAGASLQDFPRY” it was -0.684; in that of “HMSDFEASDPALLREGMRVQHLNFGKGTVITIEGAGANKKASVAFDGVGTKQLMLRFARLKIIYE”, -0.146; in that of “HMSQTDTDAKDARQKILALLSDGEWHQKTELLKIDAPKEAVSNAIRYLVLEELISIDHAKVRA”, -0.489. The result for “HMEQRREEFILLAKELLEKELRKQNLEVHENLKPDVLNDVAKRLGMVSMDDLLAAVGDGKITPGTVVSKIV” reads 0.064; that for “HMPAPKPSGALSLKDEPLYAASDSKRRSGTVSGTYYRWDGENVNGRMRITNKQENIGKAGQVTGWITAH”, 0.087; that for “HMNDNTAINEFKKMVFTRMVHLQIDNAELSKLSGVTNSKILALKYGNSNTLKLGDIVKVAKTLNINLNDL”, -2.7. The result for “HMRSPLYVQIKQHILGDIRKGVWKPGEKLPTELDLAERFGVSVGTVRRAMGGLEDEGIISRREGSGTFVRT” reads 0.0686; that for “HMESILDDFPGLGAVRRAALLEHFGDIDRLRAASAVEITEVDGFGDVLARELHDFLHRPKPDA”, -0.455. Regarding “HMQLSMLPYGFARRHGVLLVEQDEQPTLIHRAGITATVIAEVQRVAGQIDAWRLVDDARFDQQLAEVYRD”, the “soluble fraction (log2)” value is -1.06. The result for “HMNNFTQSALDTIDGIGKRRKKLLLNHFGSVKLIENASIEDIKKIDGISDLVANKIYNFFNKN” reads -0.652; that for “HMRISMRDQVYEIIKNRILSREYSLGEPINIVHLSKELGISNTPIREALSQLETERLITINSNQKYHVT”, -0.154. In the case of “HMKYEFEFPYWSNKEAKHMIVTINYPNGTRATASIQDNDGSNPDYKRIMEEFGEEQIDANTEEGLKRR” it was -0.0595; in that of “HMDIESREAWVDASGMGVRLDRWLTQLAPEFSRNHLQSLIERGAVRVDGQPALVASRKLRIGQQVAVSLIP”, -0.868.

In the case of “HMVNDQSIYASEGYVHIRSGKPVSLRIYTILGALYRHEERLVGDHVIALPRGLYIVVLNHTAKKIMV”, the “soluble fraction (log2)” value is -1.01.

As to “HMPLDISDDSKAVLKLLKNDSNELNTVKSASGLSNKKWDKTIKELTKNKIVSVSKTEDGLYIHLI”, the “soluble fraction (log2)” value turned out to be 0.202. For the sequence “HMGMTNRIKELRKAKGYRQEDLAAALGVSRQTIIAVENNKYNPTLELAMKLARHLQTTVEELFQL”, the “soluble fraction (log2)” value was -0.758. “HMARAESYGDIARLEQLLDEHANIAALDPGKLPAVRQQIWTLMRAARMDHDLGLAERPEDDSFDDMLLHV”: the “soluble fraction (log2)” value was found to be 0.133. As to “HMTANDKRNALYRKIEVGRRQLPAMDEVAFRQLLAAEFGVESRKDMSVGQLSRLVNILAEKGAVF”, the “soluble fraction (log2)” value is -0.203.

As to “HMEKIRIQKYLSERGVMSRRAADSALAEGRIAVNGVTARPGDKIDPSSDTLTIDGRIVTTGTAP”, the “soluble fraction (log2)” value was determined as 0.00802.

For the sequence “HMKEQIKVPDLSNKTPEEAKKELNTLGLGARKGGEESSDTVEEGLITRQEPAAGEQVDKNTQILFYVSTGK”, the “soluble fraction (log2)” value came out at 0.0624. With “HMTLPQEPTVLPRPLRVGDTVHIRTLDKDAEVLALPDARGMVAVRAGIINTKVKLTDLTLVEEK”, the “soluble fraction (log2)” value amounted to 0.179. In the case of “HMSNDRSYLARLQDYYAEHRALPSYASIGALLGLRSKSSVAALVARLKLAGFVESTPDRRLAPTRRFF” it was -3.24.

Turning to “HMQMPDLTGKPRAEAVTTLAALGFTDVKFLDASAGDEPLDYVADQVVRTSPEAGAALASGQQITIYLAT”, the “soluble fraction (log2)” value is 0.101. The result for “HMIELDRTNLLGVFGPKSRPYALLMLSNGEMIKISIGDQFFGWRVYGIDEKSIQVQNGTKQEILRIP” reads -2.12; that for “HMGGQYQVRPGETLNQIAARVRPSNMSLSETQKAIIQANPDIFKNGNPNLIFAGDILRIPTGNQI”, 0.211; that for “HMPHTDATDKQIIALILETLKDGQKHSVSEMTFPGIPREKTAQLLHQMIEEETVRIQNGVLFLPH”, -0.109.

Take “HMNSSLFLARQVHALRKKAGLTLQQLSRKSDVSVSTLSKIEKGQLSPTYEKIVSLARGLDVPIAALFHE”: the “soluble fraction (log2)” value was -0.976.

In the case of “HMRKPLDQSWVPDDDAMKILTNSGIEKEFIKNEIPEFILYWSDKGEISDSWNTKFISQIRRQWAKNQ”, the “soluble fraction (log2)” value was -0.222. For the sequence “HMFDENVKLIENEYDVSIISRGSELKVMGDVENVDKAARALRSMLAMINKGESLTEQNVRYVLTLVNEGNE”, the “soluble fraction (log2)” value is -0.527. The result for “HMETPSNTAGITHATSDGYIFKGESDIIGRNSFGFIVKHGSHNHIIPFDSLRGTKWEYLINKYT” reads 0.21; that for “HMTQGIDQISFSQFLDKVQSGEVTDVRISGSDITGTLKTGGKFETVAGNYEKIWDLLRENKVVFVVDSP”, 0.0436; that for “HMNNLELSEEEKSVLTIIEKEGLIELDKLKTKLELSNKKWDKTLKFLTKNKLAKVVKNDNGLFVEL”, 0.0812.

Consider “HMDLQHQLTPRLKRLRLSGILETLEVRNQQAIAEKWSYVEFLTRLAEDEVERRDHKQLTLRLR”, for which the “soluble fraction (log2)” value was -0.499. In the case of “HMNFFQEIGNSILIELNKKNWTQSMFAHKIGVSDEVFKQIVQGKKALNAVEIAKIANTLDVDPEKLLRK” it was -0.191; in that of “HMNRETAISIYRILHILEEPYKEVFTLRTLGDLSYREIADIFGKQENWARVTYHRAKLKIREALVS”, -2. The result for “HMPETYVVFSKDGYANLRRGTTINSEILDVLDNGEYVTKLDEVGEWYRVEYADFDGGYIHKSQLKNI” reads -0.252; that for “HMGTAESIRLFLSSGLIKGVGEALAGRIVDTFGTDTFDIIENHPELLAGVKGISHRLAMSIYESFSQHIGV”, -1.03. Take “HMRMSPRERKIYQFIENHPGTKSGEMAEKLGIPLPTIKRLLSDMVASKLLQKHGTGAGTNYSIEE”: the “soluble fraction (log2)” value is 0.201. Take “HMIEKVNDYVVRFANVNGTGSASANNLFALAIYRMGVPVTPKNIFPSNIQGLPTWFEVRVSGSGYLARRG”: the “soluble fraction (log2)” value worked out at 0.01. In the case of “HMISESIPAKDALLRLLNTAYQTRTNAAGEFYFNDVPPGKYILQASVNDVEIIRENISINEN” it was -0.249; in that of “HMSQDEVVADMKADLGPDADNIIRSNIQWADGLVRKGILTESEREELDVMGGTPEAQRILVKLRTMQG”, 0.0777. For the sequence “HMIADSSSIHQDAKQQLHSYLRTNIQPLMRAGKQLDLKDILHHVTIRKPKLVQQLGMKQVQHMVQVLLD”, the “soluble fraction (log2)” value turned out to be 0.224.

In the case of “HMPMIQHFHRMISAALGISEKQIVQTLGLLNDGATIPFISRYRKEVTGGLDEVQIESIKTHYEKLNEIAK”, the “soluble fraction (log2)” value is -1.52.

As to “HMVPQAVQDIKAYLASGALPYIGPATAKKIVAMFGSDALDVIAEHPEQLTAIRGLNEEKANAIHQEFRRQF”, the “soluble fraction (log2)” value was -0.0649. “HMDLDIRDDIYRANIPNDYKLQQMQNNIDYDKVLTGYYNNRPEANVIANRTLQLANDVYNRD”: the “soluble fraction (log2)” value was -0.0187. In the case of “HMTTPDIIVPDVKGMTVAEAQKALEEKGFKVKLEEMTQEGAVPGDVIRIDPVAGTKRKEGAKITLLIARG” it was 0.161; in that of “HMDGKPSLIISNGQINYKEMVKLRYSLEDLLFQLRQNSIKSIEEVEYAFLESNGKLSIFPYNFL”, -1.51.

Regarding “HMESVQWSVFPSAKYVTIISFDPTTSGGSATAKFKVSDEARSKGFRFRIEAAIGEGIMRSEMYVIEE”, the “soluble fraction (log2)” value came to 0.0612. With “HMSETAVTYNEDFEADGSLRPNEQAVLDAFTGVLKLTVSELEKKTGLRNVVPVVASLMAKGAVEVSEELK”, the “soluble fraction (log2)” value amounted to 0.0501. The result for “HMDLLAESLTRREAEVAALAARGLTNRAIAELFGLSVRTAETHLHRAMGKLGANRREDLLLHADRLDPG” reads -0.629; that for “HMNEKGTNSTINEITRISKPGRRVYVGSAEIPKVKSGRGLVLISTSKGVMTGAEAAKAKLGGELLLKV”, 0.0901; that for “HMTDLNQIGERIKGLRDALGYSPEKMASILEQKVDDYLAYEEGTKDISLSVLQRIEKEFDIDLSTLLFGT”, -0.148. With “HMARTDVKLREVAQELLRMGLLEESLRPHLYRTALASMERLNATLEPLDLIARADEIRGLVFLAVRH”, the “soluble fraction (log2)” value was -2.44. Regarding “HMDWFDELKVSTDDSGRVTAPEESEFMFQTSNEKIFAGGDMVRGSDLVVTAIWEGRQAAEGIMDYLD”, the “soluble fraction (log2)” value is -0.16.

In the case of “HMKTYEILFDILSRESDYISGEKLAQELGISRTSIWKAIQHLEKEGVHIESVKNKGYKLLSGDLLIAEKI”, the “soluble fraction (log2)” value is -1.14.

Regarding “HMTMQQGTISRLNHSRGFGFLTTPDGEDLFFHRTNVHETPFARLQVGDRVTYDVQVTPRGTRADKVQLNM”, the “soluble fraction (log2)” value was -0.0328. “HMEDIASESVKRVIRKIIDDEDKKSPLSDQAIVEILAKGEGIVIARRTVAKYREMMGILPSSKRKKH”: the “soluble fraction (log2)” value was -0.209. The result for “HMDLMKKTLTKEMLLIDFMKQQFPDSSTNKLRKMLSSGRVKINNLITHKAKSQLKLGDIFELANKPHD” reads -0.826. In the case of “HMKREELTQQTKQNLREAFWSLYIQKPIEKITVKEITDIAGYNRGTFYLYYKDTYDLLAKIE”, the “soluble fraction (log2)” value was -0.149. For the sequence “HMSKDQKKFFIEIVSIRGFGSQIGISILNKLSIPQIINAIKTQNKKEISSIPGIGQKMTERLILELNNKFK”, the “soluble fraction (log2)” value is -0.0747. The result for “HMTSPLQIHPNPATKHIELGLESPEVVLIKDINGKTVYQELVAPNQYIDIEHLKNGIYFIESKNKFGKLIK” reads 0.169; that for “HMVETDQESSLIQAIYKYFEITGDNTFFDEKVGEKTVADRMEWAMDYLIQNRFSEEYGLIWGA”, -0.2. The result for “HMDAEKHIVTPEAGLRLDRALTDALPNLSRSRVKQLINEGLVTTENKTITAPSYRVKYGDSFEISIPPPT” reads -0.0636; that for “HMETSVDEVYKKIQAYIEAEDKHKPLSDQKLAEQLQSDGLKVSRRTVAKYREKLNIASSSKRKR”, 0.358. Take “HMGSNLSFDLSQIIASRYQEKAAELGLTAPSLARTDLSPQEQATAEVVARAIIADYYDQRVAPFNDLIPQ”: the “soluble fraction (log2)” value was -0.394. The result for “HMDLGLTDDQRLVYGLLSPTVPRSSGELLGMVDFGRSKLSRILKELIELGQVFTVGVGRGLKYKRG” reads -0.307.

(Values after the domain aggregation screens of Martell et al. (2025).)
